# Source: US20250154198A1, “PEPTIDE INHIBITORS OF INTERLEUKIN-23 RECEPTOR” (Zealand Pharma A/S, priority 2021, published 2025)
# Read-outs that look alike come from different tables or passages of the source. *1 amine or outer side, *2 acyl side, *3 side chain or, on linkers, in order; H or OH if unused. Bridges are numbered along the chain shown (N, C = ends). Primed or numbered codes have the meaning given here. [ ]: non-standard residue; d: D form. 4‑Aminomethyl‑phenylacetyl = 4-aminomethyl-phenylacetyl unit, its amine closes the lactam, O=C(Cc1ccc(CN[*:1])cc1)[*:2]; 1,3‑dibromopropan‑2‑one = linker (CAS 816-39-7) joining two Cys as 1,3-dithio-propan-2-one bridge -SCH2C(=O)CH2S-; 1,3‑dibromopropan‑2‑one(3) = linker giving 1,3-dithio-propan-2-one bridge -SCH2C(=O)CH2S- between Cys; 2Nal = N[C@@H](Cc1ccc2ccccc2c1)C(=O)O; AEF = NCCOc1ccc(C[C@H](N)C(=O)O)cc1; 3Pal = N[C@@H](Cc1cccnc1)C(=O)O; αMeL = CC(C)C[C@](C)(N)C(=O)O; CH2COCH2 = O=C(C[*:1])C[*:2]; Dab = NCC[C@H](N)C(=O)O
# T1: human IL-23R endogenously expressed on DB cells (CRL-2289) (human, UniProt Q5VWK5 24-629)
# T1 sequence (looked up): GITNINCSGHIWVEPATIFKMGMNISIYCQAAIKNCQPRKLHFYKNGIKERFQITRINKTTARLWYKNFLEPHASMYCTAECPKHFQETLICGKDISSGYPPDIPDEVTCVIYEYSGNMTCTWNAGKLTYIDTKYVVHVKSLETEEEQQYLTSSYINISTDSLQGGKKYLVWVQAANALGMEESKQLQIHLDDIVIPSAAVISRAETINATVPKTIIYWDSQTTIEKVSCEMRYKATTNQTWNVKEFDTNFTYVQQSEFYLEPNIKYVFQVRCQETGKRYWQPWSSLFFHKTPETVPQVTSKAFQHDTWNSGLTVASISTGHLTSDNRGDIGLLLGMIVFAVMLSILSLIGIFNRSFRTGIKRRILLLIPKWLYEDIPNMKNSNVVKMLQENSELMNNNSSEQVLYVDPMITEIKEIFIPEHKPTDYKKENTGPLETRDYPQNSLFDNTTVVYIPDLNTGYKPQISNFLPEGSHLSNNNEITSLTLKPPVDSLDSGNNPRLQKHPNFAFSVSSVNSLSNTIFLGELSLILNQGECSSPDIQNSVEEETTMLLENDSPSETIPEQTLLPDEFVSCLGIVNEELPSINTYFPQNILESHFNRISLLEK
# T2: Nluc-IL23R fusion protein (human, UniProt Q5VWK5 22-629)
# T2 construct: range 22-629; Stably expressed in HEK293 cells; also called hIL-23R; human IL-23R fused to a Nanoluc luciferase enzyme; not shown: Nanoluc luciferase (Promega N1371 plasmid) at the N-terminus
# T2 sequence (looked up): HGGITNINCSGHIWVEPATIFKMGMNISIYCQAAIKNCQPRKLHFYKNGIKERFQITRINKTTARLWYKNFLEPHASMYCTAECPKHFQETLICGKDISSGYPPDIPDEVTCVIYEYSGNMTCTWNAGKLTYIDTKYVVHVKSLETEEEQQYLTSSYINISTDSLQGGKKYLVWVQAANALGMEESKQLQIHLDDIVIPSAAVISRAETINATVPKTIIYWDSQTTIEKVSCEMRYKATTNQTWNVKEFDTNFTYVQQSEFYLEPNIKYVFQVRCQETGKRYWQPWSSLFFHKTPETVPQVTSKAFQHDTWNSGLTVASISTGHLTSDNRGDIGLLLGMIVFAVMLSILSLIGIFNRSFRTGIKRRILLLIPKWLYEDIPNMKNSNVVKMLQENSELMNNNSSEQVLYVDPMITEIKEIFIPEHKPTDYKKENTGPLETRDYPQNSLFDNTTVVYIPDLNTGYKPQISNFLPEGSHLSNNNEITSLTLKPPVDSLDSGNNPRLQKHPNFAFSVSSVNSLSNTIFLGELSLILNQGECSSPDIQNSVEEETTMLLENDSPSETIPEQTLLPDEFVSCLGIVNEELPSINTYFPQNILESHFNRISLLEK
# B1: Compound 155 (peptide)
# peptide: Ac-KTCWQC[AEF][2Nal][αMeL]E[Dab][3Pal]-NH2
# modifications: lactam 1-10; linker 3-6 via 1,3‑dibromopropan‑2‑one(3)
# B2: Compound 16 (peptide)
# peptide: DESCXQCWWLKR
# HELM: PEPTIDE1{[ac].D.E.S.C.[Cc1cccc2c(C[C@H](N[*:1])C(=O)[*:2])c[nH]c12].Q.C.W.W.L.K.R.[am]}|CHEM1{[O=C(C[*:1])C[*:2]]}$PEPTIDE1,PEPTIDE1,3:R3-12:R3|PEPTIDE1,CHEM1,5:R3-1:R1|PEPTIDE1,CHEM1,8:R3-1:R2$$$V2.0
# SMILES: CC(=O)N[C@@H](CC(=O)O)C(=O)N[C@H]1CCC(=O)NCCCC[C@@H](C(=O)N[C@@H](CCCNC(=N)N)C(N)=O)NC(=O)[C@H](CC(C)C)NC(=O)[C@H](Cc2c[nH]c3ccccc23)NC(=O)[C@H](Cc2c[nH]c3ccccc23)NC(=O)[C@@H]2CSCC(=O)CSC[C@H](NC(=O)[C@H](CO)NC1=O)C(=O)N[C@@H](Cc1c[nH]c3c(C)cccc13)C(=O)N[C@@H](CCC(N)=O)C(=O)N2
# B3: Compound 19 (peptide)
# peptide: DKSCWQCWXLER
# HELM: PEPTIDE1{[ac].D.K.S.C.W.Q.C.W.[O=C([C@H](Cc1ccc2ccccc2c1)N[*:1])[*:2]].L.E.R.[am]}|CHEM1{[O=C(C[*:1])C[*:2]]}$PEPTIDE1,PEPTIDE1,3:R3-12:R3|PEPTIDE1,CHEM1,5:R3-1:R1|PEPTIDE1,CHEM1,8:R3-1:R2$$$V2.0
# SMILES: CC(=O)N[C@@H](CC(=O)O)C(=O)N[C@H]1CCCCNC(=O)CC[C@@H](C(=O)N[C@@H](CCCNC(=N)N)C(N)=O)NC(=O)[C@H](CC(C)C)NC(=O)[C@H](Cc2ccc3ccccc3c2)NC(=O)[C@H](Cc2c[nH]c3ccccc23)NC(=O)[C@@H]2CSCC(=O)CSC[C@H](NC(=O)[C@H](CO)NC1=O)C(=O)N[C@@H](Cc1c[nH]c3ccccc13)C(=O)N[C@@H](CCC(N)=O)C(=O)N2
# B4: Compound 4 (peptide)
# peptide: H-DESCWQCWWLKR-NH2
# modifications: lactam 2-11; linker 4-7 via 1,3‑dibromopropan‑2‑one
# B5: Compound 10 (peptide)
# peptide: Ac-ESCWQCWWLKR-NH2
# modifications: lactam 1-10; linker 3-6 via 1,3‑dibromopropan‑2‑one
# B6: Compound 20 (peptide)
# peptide: Ac-DKSCWQCW[2Nal]LER-NH2
# modifications: lactam 2-11; bridge 4-7; not fully specified (bridges); printed as [Ac]-DK(1c)SC(2d)WQC(2d)W[2-Nal]LE(1c)R-[NH2]
# B7: Compound 18 (peptide)
# peptide: Ac-KSCWQCW[2Nal]LER-NH2
# modifications: lactam 1-10; linker 3-6 via CH2COCH2
# B8: Compound 17 (peptide)
# peptide: Ac-DESCWQCW[2Nal]LKR-NH2
# modifications: lactam 2-11; linker 4-7 via CH2COCH2
# B9: Compound 7 (peptide)
# peptide: Ac-DKSCWQCWWLER-NH2
# modifications: lactam 2-11; linker 4-7 via 1,3‑dibromopropan‑2‑one
# B10: Compound 22 (peptide)
# peptide: Ac-DKSCWQCW[2Nal]LER-NH2
# modifications: lactam 2-11; bridge 4-7; not fully specified (bridges); printed as [Ac]-DK(1c)SC(2f)WQC(2f)W[2-Nal]LE(1c)R-[NH2]
# B11: Compound 21 (peptide)
# peptide: Ac-DKSCWQCW[2Nal]LER-NH2
# modifications: lactam 2-11; bridge 4-7; not fully specified (bridges); printed as [Ac]-DK(1c)SC(2e)WQC(2e)W[2-Nal]LE(1c)R-[NH2]
# B12: I4 (isomer 3) (peptide)
# peptide: H-ECWLCYYRNCNCM-NH2
# modifications: linker 5-10, 2-12 via 1,3‑dibromopropan‑2‑one
# notes: Peptide of Heinis et al., 2020, synthesised and tested by the inventors
# B13: Compound 137 (peptide)
# peptide: [4‑Aminomethyl‑phenylacetyl]SEWQ[Dab][AEF][2Nal][αMeL]E-{NH‑3‑aminopropanoyl}
# modifications: lactam N-10, 3-6
# B14: Compound 29 (peptide)
# peptide: Ac-KSCWQC[AEF][2Nal]LER-NH2
# modifications: lactam 1-10; linker 3-6 via CH2COCH2
# SMILES: CC(=O)N[C@H]1CCCCNC(=O)CC[C@@H](C(=O)N[C@@H](CCCNC(=N)N)C(N)=O)NC(=O)[C@H](CC(C)C)NC(=O)[C@H](Cc2ccc3ccccc3c2)NC(=O)[C@H](Cc2ccc(OCCN)cc2)NC(=O)[C@@H]2CSCC(=O)CSC[C@H](NC(=O)[C@H](CO)NC1=O)C(=O)N[C@@H](Cc1c[nH]c3ccccc13)C(=O)N[C@@H](CCC(N)=O)C(=O)N2
# Legend:
# [1] = molecular target: T1, human IL-23R endogenously expressed on …; assay: cell-based or functional assay
# [2] = molecular target: T2, Nluc-IL23R fusion protein; assay: BRET displacement of TAMRA-labelled peptide, Nluc-IL23R membranes
# [3] = molecular target: T1, human IL-23R endogenously expressed on …; assay: cell-based or functional assay; remark: listed apart in the source
# [4] = molecular target: T2, Nluc-IL23R fusion protein; assay: BRET displacement of TAMRA-labelled peptide, Nluc-IL23R membranes; remark: listed apart in the source
# Protocol: (§1) The plate was sealed with light impermeable plate seals, and incubated on a orbital shaker 400 rpm for 2 hours at room temperature. To determine the BRET ratio, the plate seal was removed and 25 μL of the Nanoluc substrate (Promega N1572) diluted 1:500 was added to each well and incubated for 1-2 minutes on an orbital shaker at 400 rpm. […] The BRET ratio was calculated as the fluorescence from the TAMRA/nanoluc bioluminescence. The IC₅₀ for each compound was determined by computer-aided curve fitting using a 4-parameter logistic (4PL) non-linear model.
# [5] = molecular target: T1, human IL-23R endogenously expressed on …; assay: cell-based or functional assay; remark: listed apart in the source
# [6] = molecular target: T1, human IL-23R endogenously expressed on …; assay: cell-based or functional assay; remark: listed apart in the source
# [7] = molecular target: T2, Nluc-IL23R fusion protein; assay: BRET displacement of TAMRA-labelled peptide, Nluc-IL23R membranes; remark: listed apart in the source
# Protocol: as §1
# [8] = molecular target: T2, Nluc-IL23R fusion protein; assay: as above; remark: listed apart in the source
# Protocol: as §1
# [9] = molecular target: T1, human IL-23R endogenously expressed on …; assay: cell-based or functional assay; remark: listed apart in the source
# [10] = molecular target: T1, human IL-23R endogenously expressed on …; assay: cell-based or functional assay; remark: listed apart in the source
# [11] = molecular target: T2, Nluc-IL23R fusion protein; assay: BRET displacement of TAMRA-labelled peptide, Nluc-IL23R membranes; remark: listed apart in the source
# Protocol: as §1
# [12] = molecular target: T2, Nluc-IL23R fusion protein; assay: as above; remark: listed apart in the source
# Protocol: as §1
# [13] = molecular target: T1, human IL-23R endogenously expressed on …; assay: cell-based or functional assay; remark: listed apart in the source
# [14] = molecular target: T1, human IL-23R endogenously expressed on …; assay: cell-based or functional assay; remark: listed apart in the source
# [15] = molecular target: T2, Nluc-IL23R fusion protein; assay: BRET displacement of TAMRA-labelled peptide, Nluc-IL23R membranes; remark: listed apart in the source
# Protocol: as §1
# [16] = molecular target: T2, Nluc-IL23R fusion protein; assay: as above; remark: listed apart in the source
# Protocol: as §1
# [17] = molecular target: T1, human IL-23R endogenously expressed on …; assay: cell-based or functional assay; remark: listed apart in the source
# [18] = molecular target: T2, Nluc-IL23R fusion protein; assay: BRET displacement of TAMRA-labelled peptide, Nluc-IL23R membranes; remark: listed apart in the source
# Protocol: as §1
binder,measurement,setting,value
B1,IC50 (pSTAT3),[1],30.5 pM
same,Ki,[2],0.00805 nM
B2,IC50 (pSTAT3),[3],461 nM
same,IC50 (pSTAT3),[1],461 nM
B3,Ki,[4],6.33 nM
same,IC50 (pSTAT3),[5],32.3 nM
same,IC50 (pSTAT3),[6],32.3 nM
same,IC50 (pSTAT3),[1],33.2 nM
B4,Ki,[4],143 nM
same,Ki,[7],143 nM
same,Ki,[8],143 nM
same,IC50 (pSTAT3),[9],> 1 µM
same,IC50 (pSTAT3),[3],> 1 µM
same,IC50 (pSTAT3),[1],847 nM
same,IC50 (pSTAT3),[10],> 1 µM
same,Ki,[11],143 nM
B5,IC50 (pSTAT3),[1],617 nM
same,IC50 (pSTAT3),[10],617 nM
B6,IC50 (pSTAT3),[6],79.2 nM
same,IC50 (pSTAT3),[1],79.2 nM
B7,Ki,[4],2.85 nM
same,IC50 (pSTAT3),[5],17.6 nM
same,Ki,[12],2.85 nM
same,IC50 (pSTAT3),[13],17.6 nM
same,IC50 (pSTAT3),[14],17.6 nM
same,Ki,[15],2.85 nM
same,IC50 (pSTAT3),[1],17.6 nM
same,Ki,[16],2.85 nM
B8,Ki,[4],70.7 nM
same,Ki,[7],70.7 nM
same,IC50 (pSTAT3),[3],366 nM
same,IC50 (pSTAT3),[1],366 nM
B9,IC50 (pSTAT3),[9],159 nM
same,IC50 (pSTAT3),[1],159 nM
B10,IC50 (pSTAT3),[6],> 1 µM
same,IC50 (pSTAT3),[1],> 1 µM
B11,IC50 (pSTAT3),[6],> 1 µM
same,IC50 (pSTAT3),[1],> 1 µM
B12,IC50 (pSTAT3),[17],> 1 µM
same,IC50 (pSTAT3),[1],> 1 µM
same,Ki,[18],> 1000 nM
B13,IC50 (pSTAT3),[1],24.1 nM
same,Ki,[2],0.518 nM
B14,IC50 (pSTAT3),[14],19.7 nM
same,IC50 (pSTAT3),[1],19.7 nM
